Holding throughout (type): cell-based, human
In experiment [1] the test system is hESC. Briefly: Floor plate induction from hESC (FOXA2 expression). As to conditions: for FP competency / FOXA2 induction: added to neural rosette stage cells. As for the experimental part:
(§1) For MS5 induction, established methods previously reported were used (Perrier et al., 2004). Feeder free neural induction was carried out as previously described (Chambers et al., 2009). Briefly, hESCs cultures were disaggregated using accutase for 20 minutes, washed using hESCs media and pre-plated on gelatin for 1 hour at 37° C. in the presence of ROCK inhibitor to remove MEFs. The nonadherent hESCs were washed and plated on matrigel at a density of 20,000 cells/cm2 on matrigel (BD) coated dishes in MEF conditioned hESCs media (CM) spiked with 10 ng/mL of FGF-2 and ROCK-inhibitor. The ROCK inhibitor was withdrawn, and hESCs were allowed to expand in CM for 3 days or until they were nearly confluent. The initial differentiation media conditions included knock out serum replacement (KSR) media with […] TGF-b inhibitor (SB431542, Tocris) and 500 ng/mL of Noggin (R&D). Upon day 5 of differentiation, increasing amounts of N2 media (25%, 50%, 75%) was added to the KSR media every two days while maintaining 500 ng/mL of Noggin and TGF-b inhibitor. For FP induction, Sonic C25II was added at 200 ng/ml. In some experiments, DKK-1 (R&D 100 ng/ml) FGF8 (R&D 50 ng/ml), Wnt-1 (Peprotech 50 ng/ml) and Retinoic Acid (R&D 1 uM) were added.
Tissue was fixed using 4% paraformaldehyde and Picric acid for 15 minutes, washed with PBS, permeabalized using 0.3% Triton X in PBS, and blocked using 10% Donkey Serum. Primary antibodies used for microscopy included PAX6 (Covance), TUJ1 (Covance), ZO1 (Zymed), BF1 (FOXG1, gift E.Lai), TH (Pelfreez), NKX6.1 (DSHB) and FOXA2 (SantaCruz).
Based on the hypothesis that FP specification in the mouse occurs at early developmental stages, at the time of or prior to neural induction, the inventors repeated SHH induction studies at Day 9, the time of rosette specification, using classic stromal-feeder mediated neural induction protocols (Elkabetz et al., 2008). Under this paradigm the inventors noticed a drastic change in cell morphology restricted to the cells treated with SHH-C25II (FIG. 15B). […] In addition to decreased expression of BF1 the inventors also observed decreased expression of PAX6, another maker expressed in the AN (FIG. 1E). […] The inventors performed dose response studies to understand how FP marker induction compared to that of NKX6.1 expression; a gene known to respond to lower concentrations of SHH. […] At higher concentrations FP markers rapidly rise, while NKX6.1 expression tapers off (FIG. 15G).
Using this protocol, in combination with compositions and methods of the present inventions, the inventors aimed to optimize FP differentiation by adding Sonic C25II at different time points during neural induction and assaying for FOXA2 expression. Differentiation was initiated upon NSB exposure, and Sonic C25II was added at Day 1, Day 3, Day 5, or Day 7 (FIG. 16A). […] Furthermore, the differentiation conditions establish a robust platform for inducing human FOXA2+ cells in vitro.

In experiment [2] the test system is hESC. As to the kind of experiment: Real-Time PCR of pluripotency and germ layer markers in treated hESC. As for the experimental part:
There is also evidence for suppression of alternative embryonic germ layers such as Noggin-mediated suppression of SOX17 (endodermal lineage) and SB431542-mediated suppression of Brachyury (mesodermal lineage) (FIG. 1C).
Total RNA was extracted using an RNeasy kit (Qiagen). For each sample, 1 ug of total RNA was treated for DNA contamination and reverse transcribed using the Quantitect RT kit (Qiagen). Amplified material was detected using Quantitect SYBR green probes and PCR kit (Qiagen) on a Mastercycler RealPlex2 (Eppendorf). Results were normalized to a HPRT control and are from 4-6 technical replicates of 2-3 independent biological samples at each data point.

The test system of experiment [3] is hESC. Briefly: Placode induction from hESC (N-SB versus PIP, SIX1 expression). The following applies: pre-placode cells. As for the experimental part: A timed withdrawal of the BMP inhibitor Noggin during N-SB differentiation was also tested to determine if placodal fates could be induced via derepressing endogenous BMP signaling. A time course analysis was performed during which Noggin was removed at different time points of the N-SB protocol (FIG. 28A).
Withdrawal of the BMP inhibitor noggin during N-SB differentiation may enhance the emergence of placodal fates by de-repressing endogenous BMP signaling. To this end, a time course study was performed by removing noggin at different time points of the NSB protocol (FIG. 11A) while monitoring the induction of placodal marker (FIG. 11B) trophoectodermal, neurectodermal by qRT-PCR analysis at day 11 of differentiation. Withdrawal of noggin at day 2 or 3 of differentiation yielded efficient induction of Six1 while noggin withdrawal at day 1 of differentiation lead to the induction of Eya1 in the absence of Six1 expression.
Neural Induction and placode induction: Feeder-free neural induction was carried out as previously described (Chambers et al., 2009). Briefly, hESCs cultures were disaggregated using accutase for 20 minutes, washed using hESCs media and pre-plated on gelatin for 1 hour at 37° C. in the presence of ROCK inhibitor to remove MEFs. The non-adherent hESCs were washed and plated on matrigel at a density of 60,000 cells/cm2 on matrigel (BD) coated dishes in MEF conditioned hESCs media (CM) spiked with 10 ng/mL of FGF-2 and ROCK-inhibitor. The ROCK inhibitor was withdrawn after 24 hours, and hESCs were allowed to expand in CM for 2 days or until they were 95% confluent. The initial differentiation media conditions included knock out serum replacement (KSR) media with 10 μM TGF-β inhibitor (SB431542, Tocris) and 250 ng/mL of Noggin (R&D). Upon day 5 of differentiation, increasing amounts of N2 media (25%, 50%, and 75%) were added to the KSR media every two days while maintaining […] of Noggin and TGF-β inhibitor. Similar results could be obtained when using KSR-free conditions (E6 medium (Chen et al., 2011)) following adjustments in BMP signaling; data not shown). For placode induction, Noggin was removed at day3 of differentiation. In some experiments, BMP-4 (R&D 50 ng/ml), Noggin (R&D 250 ng/ml), DKK-1 (R&D 100 ng/ml), FGF8 (R&D 50 ng/ml), SU5402 (Tocris 10 μM), Wnt-3a (R&D 50 ng/ml), DAPT (Tocris, 10 μM), CHIR99021 (Stemgent, 3 μM), Cyclopamine (Tocris, 10 μM), Sonic Hedgehog (C25II-R&D 100 ng/ml), and Purmorphamine (Stemgent, 1 μM), were added.
Microscopy, antibodies, and flow cytometry: Cells were fixed using 4% paraformaldehyde for 15 minutes, washed with PBS, permeabilized using 0.3% Triton X in PBS, and blocked using 1% BSA. Primary antibodies used for microscopy included PAX6 (Covance, DSHB), TUJ1 (Covance), BRN3A (Chemicon), AP2a (DSHB), HNK1 (Sigma), PAX3 (DSHB), SIX1 (ABR, Atlas), ISL1 (DSHB), PERIPHERIN (Santa Cruz), GSU (gift A. McNeilly), CRYAB (Chemicon), DACH1 (Proteintech), EYA1 (gift Kawakami), E-CADHERIN (Abcam), FSH (gift A. McNeilly), GATA2 (Abcam), chick GFP (Abcam), hNCAM (Santa Cruz), GLUTAMATE (Sigma), KRT14 (Labvision), SIX6 (Atlas), LHX3 (Abcam), OVOL2 (Aviva), TFAP2A (DSHB), FOXG1 (gift E. Lai), hCA (Stem Cells), and Ki67 (Sigma). Appropriate Alexa 488, Alexa 568, Alexa 647 secondary antibodies (Molecular Probes) and/or DAPI counterstaining was used for visualization. For Flow Cytometry, cells were mechanically dissociated after exposure to accutase for 20 min at 25° C. To eliminate dead cell populations in FACS analysis, we used DAPI or 7-AAD according to manufacturer's recommendation. Cells were analyzed using FACScan (Becton Dickinson) and FlowJo software (Tree Star, Inc.).

A further experiment deals with hESC derived FP. As to the kind of experiment: A/P respecification of hESC derived FP by caudalizing factors. As for the experimental part:
as §1
The inventors contemplated the use of SIX6 as a putative marker of anterior FP identity. Thus SIX6 status of the hESC derived FP was used to mark respecification in response to known caudalizing agents such as FGF8, Wnt-1, and Retinoic Acid. Each of these caudalizing factors was added in combination with SHH and the resulting tissue was assessed for expression of the FP markers FOXA2 and NETRIN-1, the AN marker BF1, and putative anterior FP marker SIX6. FP generation was found not compromised in the presence of caudalizing factors.
The inventors discovered that different factors had varied effects on marker expression (FIG. 20C).
As mentioned above, studies had identified different enhancers that directed SHH expression to different A/P region along ventral axis (Jeong et al., 2008). […] In the absence of caudalizing factors (SHH C25II alone), LacZ expression was observed herein following transfection with the SBE2 but not the SBE1 enhancer supporting the hypothesis that hESC derived FP is anterior by default (FIG. 20D). In contrast SBE2 activity was abolished upon treatment with Wnt1 or FGF8 while SBE1 activity was induced under these conditions.

The mark [4] stands for this setting: in combination with Sonic C25II.

On to `O=C1Nc2cc(Br)ccc2/C1=C1/Nc2ccccc2/C1=N\O` [BIO, reference compound], for which, in the experiment with hESC [1] (added early, BIO 100 nM), the FOXA2 expression result is “increase”. The “FP competency / FOXA2 induction” value in the experiment on hESC [1] is reported as “not sufficient”.
`NC(=O)c1ccc(-c2nc(-c3ccc4c(c3)OCO4)c(-c3ccccn3)[nH]2)cc1` [SB431542, 4-[4-(1,3-benzodioxol-5-yl)-5-(2-pyridinyl)-1H-imidazol-2-yl]-benzamide]: in the experiment with hESC [2], the “Brachyury (mesodermal lineage)” value was “suppression”, the CDX2 expression result is reported as “dramatic increase” and the Nanog expression entry is given as “rapid loss”.
For the molecule Noggin, in the experiment on hESC [2], the CDX2 expression result is “Suppression” and the “SOX17 (endodermal lineage)” value is given as “suppression”.

B1: Wnt3A: WNT protein, caudalizing cue (protein, UniProt P56704 19-352, looked up)
Protein Wnt-3a: SYPIWWSLAVGPQYSSLGSQPILCASIPGLVPKQLRFCRNYVEIMPSVAEGIKIGIQECQHQFRGRRWNCTTVHDSLAIFGPVLDKATRESAFVHAIASAGVAFAVTRSCAEGTAAICGCSSRHQGSPGKGWKWGGCSEDIEFGGMVSREFADARENRPDARSAMNRHNNEAGRQAIASHMHLKCKCHGLSGSCEVKTCWWSQPDFRAIGDFLKDKYDSASEMVVEKHRESRGWVETLRPRYTYFKVPTERDLVYYEASPNFCEPNPETGSFGTRDRTCNVSSHGIDGCDLLCCGRGHNARAERRREKCRCVFHWCCYVSCQECTRVYDVHTCK
For the molecule B1, the “otic placode compatible population” value in the experiment on hESC [3] was “induction of a population of cells coexpressing SIX1 and SOX10”. For the same molecule, in the experiment on hESC [1], the “FP competency / FOXA2 induction” value is “not sufficient”.

B2: Wnt-1: caudalizing factor, wingless-type MMTV integration site family, member 1 (protein, UniProt P04628 28-370, looked up)
Proto-oncogene Wnt-1: ANSSGRWWGIVNVASSTNLLTDSKSLQLVLEPSLQLLSRKQRRLIRQNPGILHSVSGGLQSAVRECKWQFRNRRWNCPTAPGPHLFGKIVNRGCRETAFIFAITSAGVTHSVARSCSEGSIESCTCDYRRRGPGGPDWHWGGCSDNIDFGRLFGREFVDSGEKGRDLRFLMNLHNNEAGRTTVFSEMRQECKCHGMSGSCTVRTCWMRLPTLRAVGDVLRDRFDGASRVLYGNRGSNRASRAELLRLEPEDPAHKPPSPHDLVYFEKSPNFCTYSGRLGTAGTAGRACNSSSPALDGCELLCCGRGHRTRTQRVTERCNCTFHWCCHVSCRNCTHTRVLHECL
In the case of B2, the “midbrain FP markers CORIN and NOV” value in the experiment with hESC derived FP was “significant increase”. Besides, in the experiment with hESC derived FP (SHH enhancer LacZ construct), the SBE1 activity result is “induced” and the SBE2 activity entry was “abolished”. For the same molecule, in the experiment on hESC derived FP (in combination with SHH), the BF1 expression result is on record as “dramatic reduction”; the “FP production based on FOXA2 and Netrin-1 expression” value is on record as “significantly potentiated”; the SIX6 expression entry is listed as “significant reduction”. Also, the “FP competency / FOXA2 induction” value in the experiment on hESC [1] was “not sufficient”. Besides, the “FP competency / FOXA2 induction” value with hESC [1] (listed as WNT1) is “no effect”.

B3: DKK-1: recombinant DKK-1, Wnt signaling inhibitor (protein, UniProt O94907 32-266, looked up)
Dickkopf-related protein 1: TLNSVLNSNAIKNLPPPLGGAAGHPGSAVSAAPGILYPGGNKYQTIDNYQPYPCAEDEECGTDEYCASPTRGGDAGVQICLACRKRRKRCMRHAMCCPGNYCKNGICVSSDQNHFRGEIEETITESFGNDHSTLDGYSRRTTLSSKMYHTKGQEGSVCLRSSDCASGLCCARHFWSKICKPVLKEGQVCTKHRRKGSHGLEIFQRCYCGEGLSCRIQKDHHQASNSSRLHTCQRH
Consider B3, for which the “FOXA2+ cells” value with hESC [1] (added along with SHH at Day1, 9 days of SHH exposure) is listed as “increase”. In the experiment with hESC [1] (setting [4]), the BF1 transcript result is reported as “more rapid rise”; the “FOXA2 message and protein” value was “decrease”.

The values above are taken from patent US12618044B2, “Specification of functional cranial placode derivatives from human pluripotent stem cells” (MEMORIAL SLOAN-KETTERING CANCER CENTER, priority 2013, dated 2026).
